Data reported in article PMC7437921.

Legend:
Assay in all cases: FRET or BRET
CXCR4(R30Q) (human) = CXCR4(R30Q) (human) (UniProt P61073)
[1] = biological target: CXCR4(Δ1–15), HA-free (tagless) (human) (UniProt P61073)
[2] = biological target: CXCR4(Δ1–25), HA-free (tagless) (human) (UniProt P61073)
CXCR4(D187A) (human) = CXCR4(D187A) (human) (UniProt P61073)

renilla GFP fused to mini-Gαsi
decrease in efficacy (Emax) vs WT CXCR4 (CXCR4(R30Q) (human)): 30%
efficacy (Emax) remaining, % of WT CXCR4 [1]: 33%
efficacy (Emax) remaining, % of WT CXCR4 [2]: 23%
efficacy (Emax) remaining, % of WT CXCR4 (CXCR4(D187A) (human)): 30%
